Experimental data published in patent publication US20220056125A1 (CEPHALON, published 2022).
Substitutions are numbered along the chain they refer to.

T1: human PAR-2 (human, UniProt P55085 26-397)
T1 sequence: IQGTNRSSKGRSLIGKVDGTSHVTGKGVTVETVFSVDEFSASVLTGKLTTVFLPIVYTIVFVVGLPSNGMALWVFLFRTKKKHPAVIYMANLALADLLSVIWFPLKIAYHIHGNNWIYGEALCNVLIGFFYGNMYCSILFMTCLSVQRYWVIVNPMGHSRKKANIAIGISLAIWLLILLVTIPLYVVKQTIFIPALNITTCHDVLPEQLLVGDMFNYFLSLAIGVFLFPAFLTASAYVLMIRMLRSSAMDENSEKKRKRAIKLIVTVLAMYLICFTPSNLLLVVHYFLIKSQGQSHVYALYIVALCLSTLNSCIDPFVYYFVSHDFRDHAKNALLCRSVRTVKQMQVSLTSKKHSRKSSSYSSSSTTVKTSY

T2: human PAR-1 (human, UniProt P25116 22-425)
T2 construct: also called huPAR-1
T2 sequence: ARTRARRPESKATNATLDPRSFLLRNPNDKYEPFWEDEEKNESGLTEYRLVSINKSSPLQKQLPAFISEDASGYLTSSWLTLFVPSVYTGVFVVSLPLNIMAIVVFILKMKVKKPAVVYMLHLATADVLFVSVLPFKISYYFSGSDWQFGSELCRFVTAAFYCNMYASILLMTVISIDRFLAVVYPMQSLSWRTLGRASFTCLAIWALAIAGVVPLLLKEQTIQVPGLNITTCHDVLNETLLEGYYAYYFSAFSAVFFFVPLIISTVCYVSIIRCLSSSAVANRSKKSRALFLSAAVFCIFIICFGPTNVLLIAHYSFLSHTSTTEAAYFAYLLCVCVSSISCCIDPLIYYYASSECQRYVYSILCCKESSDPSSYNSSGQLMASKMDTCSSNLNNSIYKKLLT

B1: Ab303 (antibody, human IgG4, V domains shown)
VH: QVTLKESGPGILQPSHTLSLTCSFSGFSLSTYGMGVSWIRQPSGKGLEWLASIWWNGNTYNNPSLKSRLTVSKDTSNNQAFLKVTSVDTADTATYYCAHTPNLGNWFAYWGQGTLVTVSS
VL: DIQMTQSPSFLSASVGERVTLSCKTSQKINRYLDWYQQKLGEAPKLLIYNTNNLHTGIPSRFSGSGSGTDYTLTISSLQPEDVATYFCLQHSSWPTFGAGTKLELK
notes: also called Anti-PAR-2 antibody # 303
B2: Ab313 (antibody, human IgG4, V domains shown)
VH: EVQLKESGPGLVQPSQTLSLTCTVSGFSLTDYSVHWVRQPPGKGLEWMGVMWSGGSTSYNSPLKSRLSISRDTSKSQVFLKTNSLQTEDTAIYYCTRARPTVATLDYWGQGVMVTVSS
VL: DIQMTQSPSVLSASVGDRVILNCKASQKINKYLNWYQQKLGEAPKLLIYTTNNLQTGIPSRFSGSGSGTDFTLTISSLQPEDFATYFCFQHSSWPTFGAGTKLELK
notes: also called Anti-PAR-2 antibody # 313
B3: Ab335 (antibody, human IgG4, V domains shown)
VH: QVQLKESGPGLVQPSQTLSLSCTVSGFSLSTYGVIWVRQPPGKGLEWMGVIWGNGNTNYNSALKSRLSISRDTSKSQVFLKMNNLQSEDTAMYFCGRWRGYKDYPFDYWGQGVKVTVSS
VL: DIQMTQSPSFLSASVGDRVTINCKASRNIYKYLDWYQQKLGEAPKLLIYNTNNLHTGIPSRFSGSGSGTDFTLTISSLQPEDVATYFCLQHNSGWTFGGGTKLELK
notes: also called Anti-PAR-2 antibody # 335
B4: Ab348 (antibody, human IgG4, V domains shown)
VH: QVQLKESGPGLVQPSQTLSLTCSVSGFSLSSYGVIWVRQPPGKGLEWMGVVWGNGNTAYNFTLKSRLTISRDTSKSQVFLKMNNLQTEDTAMYFCGRWRGFKDYPFDYWGQGVMVTVSS
VL: B3 VL with R27Q, N53S
notes: also called Anti-PAR-2 antibody # 348
B5: Ab342 (antibody, human IgG4, V domains shown)
VH: B3 VH with S30N, E46D, N58Y, N60D, V78I, Y101F
VL: B3 VL with S7T, K24R, R27Q, Q38L, N53T, T96A
notes: also called Anti-PAR-2 antibody # 342
B6: Ab323 (antibody, human IgG4, V domains shown)
VH: B3 VH with S21T, T23S, V34I, N58H, S70T, S87T, K114M
VL: B3 VL with R27Q, I48M, N53T
notes: also called Anti-PAR-2 antibody # 323
B7: Ab311 (antibody, human IgG4, V domains shown)
VH: B3 VH with S30T, E46M, N58Y, A62P
VL: B3 VL with R27Q, T51S, N53I, I58V, T74S, T101S, K106R
notes: also called Anti-PAR-2 antibody # 311
B8: Ab360 (antibody, human IgG4, V domains shown)
VH: EVQLVESGGGLVQPGRSLKLSCVASGFTFNNYWMTWIRQAPGKGLEWVASITNTGGSTYYPDSVKGRFTISRDNAKSTLYLQMNSLRSEDTATYYCTREGIRGTGWFAYWGQGTLVTVSS
VL: DTVLTQSPALAVSPGERVTISCRASESVRTRMHWYQQRPGQQPKLLIYGASNPESGVPARFSGSGSGTDFTLTIDPVEADDSATYFCHQSWNEYTFGAGTKLELK
notes: also called Anti-PAR-2 antibody # 360
B9: Ab343 (antibody, human IgG4, V domains shown)
VH: EVQLVESGGGLVQPGRSLKLSCVASGFTFNNYWMSWIRQAPGKGLEWVASITNTGGRIFYPDSVKGRFTISRDNAQNTLYLQMNSLRSEDAATYYCTRDRLYYGSNWFTYWGQGTLVTVSS
VL: DIQMTQSPHSLSASLGETVSIECLASEAISNYLAWYQQKPGKSPQLLIYYASSLKDGVPSRISGSGSGTQYSLKISNMQPEDEGVYYCQQGYKYPRTFGGGTKLELK
notes: also called Anti-PAR-2 antibody # 343

What was measured:
[1] = target: T1, human PAR-2; assay: cell-based or functional assay
[2] = target: T2, human PAR-1; assay: flow cytometry, transfected Expi293F cells
Procedure: Paired heavy and light chains encoded by these sequence pairs were expressed as a full length human IgG4 isotype antibodies and assessed for PAR-2 binding and selectivity by flow cytometry. […] Cells were used for flow cytometric analysis 36-48 hours post-transfection. Use of Nt-PAR-2 as a target allowed antibodies which bound the N-terminal residues of PAR-2 (which comprise the protease-cleavage sites on PAR-2) to be distinguished from antibodies which bound other extracellular sites on PAR-2, such as the PAR-2-activating ligand-binding site(s). Expi293F cells, transiently expressing one of each of the different target proteins were labelled with different intensities of a single fluorphor Encoder dye (Intellicyt) for 10 mins at either 1 in 250 dilution for high intensity and/or 1 in 1500 dilution for moderate intensity, enabling simultaneous analysis of multiple cell populations. After washing the cells were then mixed in an equal ratio with the unlabeled cell type and analyzed for antibody binding.
The cells were plated in 96 well plates at 2×10⁵ cells/well. Following a wash step using Phosphate buffered saline (PBS), the primary antibody (anti-PAR-2 antibody) was added at a concentration of 10 μg/mL in 50 μL of FACS buffer (0.5% w/v BSA in PBS) to each well and incubated for 10-15 mins. Following a wash step, secondary antibody (anti-human Fc-FITC) was added to the wells at 1:200 dilution in 50 μL for 10-15 mins. Following a washing step, the cells were re-suspended in fluorescence-activated cell sorting (FACS) buffer. The flow cytometry analysis was performed on an Intellicyt iQue screener. Gates were drawn around the different intensities of encoder dye-positive cells and these populations were analyzed separately from each other and the unlabeled cells for binding by the primary antibody.

Binder	IC50, PAR-2 β-arrestin cell assay [1] [nM]	binding result [2]
B1	9	no binding (tested: 10 µg/mL)
B2	8.2	no binding (tested: 10 µg/mL)
B3	2.5	no binding (tested: 10 µg/mL)
B4	2.7	no binding (tested: 10 µg/mL)
B5	1.9	no binding (tested: 10 µg/mL)
B6	2.1	no binding (tested: 10 µg/mL)
B7	1.8	no binding (tested: 10 µg/mL)
B8	16	no binding (tested: 10 µg/mL)
B9	18.2	no binding (tested: 10 µg/mL)
